How the values were obtained:
[1] = molecular target: T1, HNF4α ΔABΔF (DBD-hinge-LBD) (human, UniProt P41235-2 55-377); assay: fluorescence anisotropy
T1 sequence: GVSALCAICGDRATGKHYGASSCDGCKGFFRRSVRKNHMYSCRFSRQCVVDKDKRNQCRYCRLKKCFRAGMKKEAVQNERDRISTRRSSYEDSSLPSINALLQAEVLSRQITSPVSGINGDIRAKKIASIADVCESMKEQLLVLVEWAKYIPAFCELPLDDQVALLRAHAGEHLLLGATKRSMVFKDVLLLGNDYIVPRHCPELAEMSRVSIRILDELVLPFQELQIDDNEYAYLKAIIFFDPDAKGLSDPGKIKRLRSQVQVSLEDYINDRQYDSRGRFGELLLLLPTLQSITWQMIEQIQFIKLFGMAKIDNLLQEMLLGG

[2] = molecular target: T2, HNF4α DBD (DBD-hinge) (human, UniProt P41235-2 55-135); assay: fluorescence anisotropy
T2 sequence: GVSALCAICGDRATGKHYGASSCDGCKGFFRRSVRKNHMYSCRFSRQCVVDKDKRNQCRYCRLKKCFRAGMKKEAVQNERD

B1: DR1 (5'-fluorescein top strand) (dsDNA)
DNA 1: GGAACTAGGTCAAAGGTCAG
DNA 2: CCTGACCTTTGACCTAGTTC
[1]
  Kd: 82 nM
[2]
  Kd: ~6 µM
